The values that follow are results of earlier work, collected in publication PMC6826157.

One data set deals with Lys270 (UniProt position 270, AMSAKKDAMVP). Kind of data set: kinetics. The conditions noted are these: V/K profile with the natural substrate L-tryptophan (free enzyme plus substrate).
For a further data set, the target named is Asp137 (UniProt position 137, SNYFFDTTQGH). The data set can be described thus: kinetics. The conditions noted are these: V/K profile with the natural substrate L-tryptophan (free enzyme plus substrate).

By pKa is commonly meant the pH at which an ionisable group is half protonated. In the case of “Tryptophan indole-lyase (tryptophanase, TIL, EC 4.1.99.1) (Escherichia coli)”, the pKa with Lys270 is recorded as 7.6 ± 0.09; with Asp137, 6.0 ± 0.2.
